Source: the supplement of paper PMC10065799, “High-throughput profiling of sequence recognition by tyrosine kinases and SH2 domains using bacterial peptide display” (eLife, 2023)

What was measured:
Fer (mouse) = assay: phosphorylation enrichment, bacterial display (enrichment ratio); higher = better substrate or ligand; peptides without Tyr show the background
EPHB2 = EPHB2 (UniProt P29323); assay: as above
EPHB1 = EPHB1 (UniProt P54762); assay: as above
c-Abl (mouse) = assay: as above
FGFR1 = FGFR1 (UniProt P11362); assay: as above
FGFR3 = FGFR3 (UniProt P22607); assay: as above
MERTK = MERTK (UniProt Q12866); assay: as above
Fes = Fes (UniProt P07332); assay: as above
AncSZ = assay: as above
Jak2 = Jak2 (UniProt O60674); assay: as above
Fyn = Fyn (UniProt P06241); assay: as above
Hck = Hck (UniProt P08631); assay: as above
c-Src = assay: as above
Grb2 SH2 = Grb2 SH2 (UniProt P62993); assay: SH2 binding enrichment of the phosphorylated peptide, bacterial display (enrichment ratio); higher = better substrate or ligand; peptides without Tyr show the background
SHP2-C SH2 = assay: as above
c-Src SH2 = assay: as above
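Wherever SH2 binding enrichment of the phosphorylated peptide, bacterial display is given: peptide library displayed on the E. coli surface as eCPX fusions, selected cells deep-sequenced, score is each peptide's frequency after selection divided by its frequency in the input.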
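Wherever phosphorylation enrichment, bacterial display is given: 11-residue human phosphosite peptides and single-mutation variants displayed on the E. coli surface, counted by deep sequencing, each peptide's frequency after selection divided by its frequency in the unselected input library; frequency after pTyr selection over input frequency; kinase dosed for 20-30% of maximal phosphorylation in three min.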

FGFR1, sequence (P11362 whole entry, looked up): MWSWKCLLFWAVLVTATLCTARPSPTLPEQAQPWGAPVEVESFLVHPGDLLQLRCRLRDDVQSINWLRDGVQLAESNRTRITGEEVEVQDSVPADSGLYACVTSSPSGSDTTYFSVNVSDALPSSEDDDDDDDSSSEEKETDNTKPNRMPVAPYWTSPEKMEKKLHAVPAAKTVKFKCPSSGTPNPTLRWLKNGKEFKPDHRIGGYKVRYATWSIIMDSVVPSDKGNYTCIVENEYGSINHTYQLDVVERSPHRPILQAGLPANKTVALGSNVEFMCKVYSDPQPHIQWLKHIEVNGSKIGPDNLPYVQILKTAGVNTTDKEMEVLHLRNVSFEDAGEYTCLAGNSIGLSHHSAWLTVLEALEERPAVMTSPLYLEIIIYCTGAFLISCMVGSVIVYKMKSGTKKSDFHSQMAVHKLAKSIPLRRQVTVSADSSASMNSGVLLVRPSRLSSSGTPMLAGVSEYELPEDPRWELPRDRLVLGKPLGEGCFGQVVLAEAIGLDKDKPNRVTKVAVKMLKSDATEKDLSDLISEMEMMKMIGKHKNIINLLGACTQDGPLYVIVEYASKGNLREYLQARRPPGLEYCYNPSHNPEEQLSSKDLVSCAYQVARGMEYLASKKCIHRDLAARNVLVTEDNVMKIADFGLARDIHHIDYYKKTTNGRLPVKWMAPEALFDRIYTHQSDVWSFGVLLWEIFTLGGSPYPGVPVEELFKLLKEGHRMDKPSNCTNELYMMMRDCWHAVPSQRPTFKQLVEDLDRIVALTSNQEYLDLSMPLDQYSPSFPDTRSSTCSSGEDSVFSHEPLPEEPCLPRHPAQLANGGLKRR
Fyn, sequence (P06241 whole entry, looked up): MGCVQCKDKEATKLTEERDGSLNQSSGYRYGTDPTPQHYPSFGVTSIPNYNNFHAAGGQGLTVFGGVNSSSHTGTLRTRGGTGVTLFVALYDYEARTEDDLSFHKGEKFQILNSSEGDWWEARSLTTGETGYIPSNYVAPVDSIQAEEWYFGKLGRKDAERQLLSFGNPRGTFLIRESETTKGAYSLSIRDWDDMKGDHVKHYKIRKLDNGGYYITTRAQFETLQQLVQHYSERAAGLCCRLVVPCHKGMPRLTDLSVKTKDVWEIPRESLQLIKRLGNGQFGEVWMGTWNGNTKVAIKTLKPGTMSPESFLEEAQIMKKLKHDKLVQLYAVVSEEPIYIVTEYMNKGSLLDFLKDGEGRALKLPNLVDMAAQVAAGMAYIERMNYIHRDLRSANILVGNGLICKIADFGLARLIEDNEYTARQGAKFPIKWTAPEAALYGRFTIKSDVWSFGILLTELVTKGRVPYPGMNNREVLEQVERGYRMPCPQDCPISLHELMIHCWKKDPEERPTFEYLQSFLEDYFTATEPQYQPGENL
FGFR3, sequence (P22607 whole entry, looked up): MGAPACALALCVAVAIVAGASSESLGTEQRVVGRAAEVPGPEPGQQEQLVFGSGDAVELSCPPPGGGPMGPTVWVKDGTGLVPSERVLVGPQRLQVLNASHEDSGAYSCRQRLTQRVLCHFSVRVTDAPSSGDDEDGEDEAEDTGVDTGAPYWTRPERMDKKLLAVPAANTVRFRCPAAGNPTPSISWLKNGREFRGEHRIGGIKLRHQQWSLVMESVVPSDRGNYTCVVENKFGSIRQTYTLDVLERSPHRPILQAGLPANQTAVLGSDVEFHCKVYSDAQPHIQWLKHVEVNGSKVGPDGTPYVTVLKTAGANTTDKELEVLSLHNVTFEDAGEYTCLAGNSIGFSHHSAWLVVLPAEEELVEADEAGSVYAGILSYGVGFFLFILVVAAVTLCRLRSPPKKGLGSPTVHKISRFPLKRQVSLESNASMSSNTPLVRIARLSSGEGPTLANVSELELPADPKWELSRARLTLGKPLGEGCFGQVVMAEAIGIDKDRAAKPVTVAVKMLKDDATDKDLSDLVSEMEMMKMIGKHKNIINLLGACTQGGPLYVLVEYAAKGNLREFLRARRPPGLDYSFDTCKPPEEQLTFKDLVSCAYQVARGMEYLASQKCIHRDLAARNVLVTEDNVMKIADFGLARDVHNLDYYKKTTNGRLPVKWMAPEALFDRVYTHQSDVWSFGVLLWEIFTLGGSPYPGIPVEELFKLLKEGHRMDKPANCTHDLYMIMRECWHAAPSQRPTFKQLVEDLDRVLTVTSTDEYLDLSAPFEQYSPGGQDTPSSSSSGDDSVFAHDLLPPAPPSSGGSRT
Jak2, sequence (O60674 whole entry, looked up): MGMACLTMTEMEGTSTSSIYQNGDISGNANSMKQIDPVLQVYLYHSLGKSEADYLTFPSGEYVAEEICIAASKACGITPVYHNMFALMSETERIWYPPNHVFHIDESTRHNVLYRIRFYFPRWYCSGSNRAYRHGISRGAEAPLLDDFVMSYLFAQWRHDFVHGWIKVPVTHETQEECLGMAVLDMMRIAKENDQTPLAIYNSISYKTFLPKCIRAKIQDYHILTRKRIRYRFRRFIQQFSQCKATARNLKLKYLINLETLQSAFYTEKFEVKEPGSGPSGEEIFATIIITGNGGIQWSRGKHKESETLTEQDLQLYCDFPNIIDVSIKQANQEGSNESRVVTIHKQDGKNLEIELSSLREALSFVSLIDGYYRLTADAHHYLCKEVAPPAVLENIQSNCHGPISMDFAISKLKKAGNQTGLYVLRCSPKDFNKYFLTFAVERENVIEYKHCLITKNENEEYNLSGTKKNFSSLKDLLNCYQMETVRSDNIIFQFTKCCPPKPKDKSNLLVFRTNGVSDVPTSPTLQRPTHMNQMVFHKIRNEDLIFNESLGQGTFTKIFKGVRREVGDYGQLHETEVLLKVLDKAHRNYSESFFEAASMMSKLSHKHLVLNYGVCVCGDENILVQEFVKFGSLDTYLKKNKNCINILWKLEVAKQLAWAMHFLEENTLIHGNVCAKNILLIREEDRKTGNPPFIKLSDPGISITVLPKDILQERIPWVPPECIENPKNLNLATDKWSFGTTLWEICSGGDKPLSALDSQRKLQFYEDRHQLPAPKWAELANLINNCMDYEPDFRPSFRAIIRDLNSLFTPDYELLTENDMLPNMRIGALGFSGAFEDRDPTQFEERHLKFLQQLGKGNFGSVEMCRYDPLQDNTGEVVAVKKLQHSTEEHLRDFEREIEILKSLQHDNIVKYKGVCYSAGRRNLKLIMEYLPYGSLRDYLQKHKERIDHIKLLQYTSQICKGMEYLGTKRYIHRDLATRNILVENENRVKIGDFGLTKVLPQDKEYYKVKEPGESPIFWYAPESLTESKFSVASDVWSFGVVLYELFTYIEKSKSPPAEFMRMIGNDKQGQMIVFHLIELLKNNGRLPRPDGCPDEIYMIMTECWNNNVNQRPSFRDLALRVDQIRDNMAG
MERTK, sequence (Q12866 whole entry, looked up): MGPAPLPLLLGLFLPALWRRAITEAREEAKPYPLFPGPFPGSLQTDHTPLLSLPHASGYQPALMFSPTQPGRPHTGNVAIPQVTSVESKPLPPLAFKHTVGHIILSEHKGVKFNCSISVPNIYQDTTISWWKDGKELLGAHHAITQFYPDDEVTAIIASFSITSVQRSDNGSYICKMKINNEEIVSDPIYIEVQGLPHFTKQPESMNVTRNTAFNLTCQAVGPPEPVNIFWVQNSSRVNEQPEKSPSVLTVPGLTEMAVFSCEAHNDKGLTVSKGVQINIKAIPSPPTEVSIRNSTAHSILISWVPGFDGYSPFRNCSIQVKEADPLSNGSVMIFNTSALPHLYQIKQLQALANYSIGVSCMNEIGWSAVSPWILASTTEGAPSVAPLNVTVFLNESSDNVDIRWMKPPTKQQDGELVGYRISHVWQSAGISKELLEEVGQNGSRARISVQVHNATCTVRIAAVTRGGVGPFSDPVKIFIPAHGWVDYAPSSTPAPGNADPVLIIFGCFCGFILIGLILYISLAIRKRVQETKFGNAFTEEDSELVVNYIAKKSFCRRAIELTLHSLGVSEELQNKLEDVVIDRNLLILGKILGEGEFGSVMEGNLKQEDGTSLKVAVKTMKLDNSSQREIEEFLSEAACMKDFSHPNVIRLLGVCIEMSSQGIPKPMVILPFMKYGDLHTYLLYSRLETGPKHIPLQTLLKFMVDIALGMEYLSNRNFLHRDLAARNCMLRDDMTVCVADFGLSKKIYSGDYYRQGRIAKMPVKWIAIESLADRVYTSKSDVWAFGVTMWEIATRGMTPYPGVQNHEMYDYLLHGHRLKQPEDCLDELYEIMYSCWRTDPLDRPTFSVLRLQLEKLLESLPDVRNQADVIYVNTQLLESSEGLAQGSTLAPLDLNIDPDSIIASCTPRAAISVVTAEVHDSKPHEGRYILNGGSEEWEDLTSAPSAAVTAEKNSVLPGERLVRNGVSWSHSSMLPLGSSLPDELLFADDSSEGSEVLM
Hck, sequence (P08631 whole entry, looked up): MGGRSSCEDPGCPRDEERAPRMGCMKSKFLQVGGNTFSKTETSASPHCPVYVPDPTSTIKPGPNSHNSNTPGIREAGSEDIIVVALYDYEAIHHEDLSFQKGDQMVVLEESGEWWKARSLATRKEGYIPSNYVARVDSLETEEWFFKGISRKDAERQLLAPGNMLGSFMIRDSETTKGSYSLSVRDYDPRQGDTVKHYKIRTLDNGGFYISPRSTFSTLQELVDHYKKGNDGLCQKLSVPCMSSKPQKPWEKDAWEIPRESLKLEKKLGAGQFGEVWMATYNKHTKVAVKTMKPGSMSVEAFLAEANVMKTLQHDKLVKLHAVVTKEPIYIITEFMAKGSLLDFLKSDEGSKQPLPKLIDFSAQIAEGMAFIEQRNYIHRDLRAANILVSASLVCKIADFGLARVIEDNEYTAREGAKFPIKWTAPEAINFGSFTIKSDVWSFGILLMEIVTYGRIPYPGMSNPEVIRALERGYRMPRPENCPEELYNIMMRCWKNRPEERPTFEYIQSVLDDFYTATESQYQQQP

Sequence | SH2 binding enrichment (Grb2 SH2) | SH2 binding enrichment (SHP2-C SH2) | SH2 binding enrichment (c-Src SH2) | phosphorylation enrichment (Fer (mouse)) | phosphorylation enrichment (EPHB2) | phosphorylation enrichment (EPHB1) | phosphorylation enrichment (c-Abl (mouse)) | phosphorylation enrichment (FGFR1) | phosphorylation enrichment (FGFR3) | phosphorylation enrichment (MERTK) | phosphorylation enrichment (Fes) | phosphorylation enrichment (AncSZ) | phosphorylation enrichment (Jak2) | phosphorylation enrichment (Fyn) | phosphorylation enrichment (Hck) | phosphorylation enrichment (c-Src)
WKKKIYEESST [MOCS2_Y170_E168K] | 0.62 | 0.481 | 0.415 | 0.449 | 0.526 | 0.393 | 0.761 | 0.423 | 0.813 | 0.432 | 1.05 | 0.818 | 0.794 | 0.534 | 0.511 | 0.448
WNDPDYMDSRR [GAA_Y407_L405P] | 0.679 | 0.581 | 0.417 | 0.432 | 0.687 | 0.989 | 0.614 | 0.553 | 0.727 | 0.351 | 1 | 1.46 | 0.779 | 0.493 | 0.472 | 0.453
WQQQSYLASGI [CTNNB1_Y30_D32A] | 0.822 | 0.588 | 0.52 | 0.442 | 0.51 | 0.532 | 0.686 | 0.463 | 0.533 | 0.411 | 0.754 | 0.642 | 0.638 | 0.487 | 0.447 | 0.5
WSQAMYPDLGP [STARD8_Y330_R327Q] | 1.07 | 0.766 | 0.774 | 0.475 | 0.636 | 0.476 | 0.648 | 0.493 | 0.583 | 0.393 | 0.921 | 1.06 | 0.765 | 0.47 | 0.486 | 0.47
YCRIMYDIFPF [INTS13_Y67] | 1.01 | 1.12 | 1.64 | 2.06 | 5.07 | 6.02 | 1.7 | 3.47 | 2.89 | 4.92 | 1.48 | 1.85 | 1.51 | 2.55 | 3.78 | 2.98
YISLIYTNYEA [GSTP1_Y109] | 1.24 | 1.53 | 1.75 | 1.72 | 1.71 | 1.7 | 1.31 | 4.5 | 3.6 | 3.44 | 1.23 | 1.68 | 1.23 | 3.72 | 2.83 | 4.21
YPKVRYHWLVL [APTX_Y214_A212V] | 1.05 | 1.17 | 0.756 | 0.506 | 0.758 | 0.652 | 1.15 | 0.681 | 1.03 | 0.448 | 1.35 | 1 | 1.06 | 0.531 | 0.547 | 0.474
YRASYYRKGGC [ALK_Y1283] | 0.691 | 0.512 | 0.484 | 0.636 | 0.435 | 0.57 | 0.653 | 0.514 | 0.513 | 0.561 | 0.677 | 0.808 | 0.678 | 0.485 | 0.488 | 0.552
YRIDHYLGKEM [G6PD_Y202] | 0.678 | 0.665 | 0.589 | 0.445 | 0.627 | 0.467 | 0.706 | 0.57 | 0.654 | 0.508 | 0.909 | 0.716 | 0.865 | 0.757 | 0.57 | 0.485
YTHSDYQYGQR [PKP2_Y166_S169G] | 0.712 | 0.885 | 0.692 | 0.572 | 0.416 | 0.436 | 0.492 | 0.531 | 0.606 | 0.424 | 0.496 | 0.867 | 0.317 | 0.476 | 0.703 | 0.439

More lines, main results first:

SH2 binding enrichment (Grb2 SH2) | SH2 binding enrichment (SHP2-C SH2) | SH2 binding enrichment (c-Src SH2) | Sequence | phosphorylation enrichment (Fer (mouse)) | phosphorylation enrichment (EPHB2) | phosphorylation enrichment (EPHB1) | phosphorylation enrichment (c-Abl (mouse)) | phosphorylation enrichment (FGFR1) | phosphorylation enrichment (FGFR3) | phosphorylation enrichment (MERTK) | phosphorylation enrichment (Fes) | phosphorylation enrichment (AncSZ) | phosphorylation enrichment (Jak2) | phosphorylation enrichment (Fyn) | phosphorylation enrichment (Hck) | phosphorylation enrichment (c-Src)
0.903 | 0.796 | 0.643 | WNDLDYVDSRR [GAA_Y407_M408V] | 0.45 | 0.869 | 0.515 | 0.53 | 0.567 | 0.67 | 0.357 | 0.94 | 1.44 | 0.89 | 0.373 | 0.521 | 0.478
0.858 | 0.664 | 0.499 | WQQQSYLGSGI [CTNNB1_Y30_D32G] | 0.389 | 0.469 | 0.362 | 0.521 | 0.634 | 0.493 | 0.357 | 0.61 | 0.748 | 0.544 | 0.372 | 0.471 | 0.421
0.731 | 0.66 | 0.349 | WRPFGYPRRRR [BCS1L_Y181] | 0.462 | 0.481 | 0.486 | 0.444 | 0.367 | 0.522 | 0.487 | 0.513 | 0.615 | 0.494 | 0.518 | 0.453 | 0.446
0.901 | 0.577 | 0.552 | YAREGYSALPQ [SARS2_Y52] | 0.439 | 0.459 | 0.499 | 0.541 | 0.522 | 0.52 | 0.442 | 0.789 | 0.678 | 0.904 | 0.396 | 0.58 | 0.373
0.991 | 0.752 | 0.823 | YGTAQYCCRMG [LRRK2_Y2023_I2020T] | 0.603 | 9.81 | 0.714 | 3.23 | 0.498 | 0.603 | 2.78 | 0.613 | 0.719 | 0.506 | 1.01 | 1.2 | 0.757
1.15 | 0.553 | 0.453 | YRRITYHNWRH [PDE6B_Y556] | 0.452 | 0.362 | 0.376 | 0.53 | 0.386 | 0.425 | 0.562 | 0.637 | 0.642 | 0.585 | 0.525 | 0.477 | 0.606
